How the values were obtained:
Assay in all cases: Kinase Profiling Assay
Assay type in all cases: biochemical
Details in all cases: 100 μM
[1] = target: CaMKI(h) (Homo sapiens, UniProt Q14012)
[2] = target: T1, EphA1(h) (Homo sapiens, UniProt P21709)
T1 sequence (P21709 26-976): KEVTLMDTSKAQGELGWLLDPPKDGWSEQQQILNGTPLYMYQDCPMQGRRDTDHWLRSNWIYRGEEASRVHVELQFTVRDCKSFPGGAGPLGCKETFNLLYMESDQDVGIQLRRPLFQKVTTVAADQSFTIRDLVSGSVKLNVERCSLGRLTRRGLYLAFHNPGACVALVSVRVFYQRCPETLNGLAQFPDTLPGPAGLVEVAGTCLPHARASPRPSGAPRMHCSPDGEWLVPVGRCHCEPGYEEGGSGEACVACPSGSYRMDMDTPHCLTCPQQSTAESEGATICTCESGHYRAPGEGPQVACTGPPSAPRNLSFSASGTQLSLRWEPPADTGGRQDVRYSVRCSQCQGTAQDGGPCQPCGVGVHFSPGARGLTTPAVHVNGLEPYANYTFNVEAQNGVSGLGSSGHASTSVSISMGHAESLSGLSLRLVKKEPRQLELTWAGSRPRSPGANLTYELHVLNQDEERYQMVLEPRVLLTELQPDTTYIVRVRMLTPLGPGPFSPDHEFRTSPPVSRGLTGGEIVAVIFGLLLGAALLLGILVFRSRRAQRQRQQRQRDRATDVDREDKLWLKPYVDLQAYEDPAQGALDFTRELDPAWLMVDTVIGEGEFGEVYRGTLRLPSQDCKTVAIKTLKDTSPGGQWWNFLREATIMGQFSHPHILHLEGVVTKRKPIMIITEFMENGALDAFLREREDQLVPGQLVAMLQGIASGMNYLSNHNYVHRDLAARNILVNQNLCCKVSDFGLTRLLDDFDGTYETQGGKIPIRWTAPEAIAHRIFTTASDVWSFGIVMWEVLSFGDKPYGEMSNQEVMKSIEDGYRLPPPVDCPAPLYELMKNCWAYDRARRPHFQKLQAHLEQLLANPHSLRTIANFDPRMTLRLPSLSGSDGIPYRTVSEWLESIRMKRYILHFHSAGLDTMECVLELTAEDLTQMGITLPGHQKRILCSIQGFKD

[3] = target: T2, EphB2(h) (Homo sapiens, UniProt P29323)
T2 sequence (P29323 19-1055): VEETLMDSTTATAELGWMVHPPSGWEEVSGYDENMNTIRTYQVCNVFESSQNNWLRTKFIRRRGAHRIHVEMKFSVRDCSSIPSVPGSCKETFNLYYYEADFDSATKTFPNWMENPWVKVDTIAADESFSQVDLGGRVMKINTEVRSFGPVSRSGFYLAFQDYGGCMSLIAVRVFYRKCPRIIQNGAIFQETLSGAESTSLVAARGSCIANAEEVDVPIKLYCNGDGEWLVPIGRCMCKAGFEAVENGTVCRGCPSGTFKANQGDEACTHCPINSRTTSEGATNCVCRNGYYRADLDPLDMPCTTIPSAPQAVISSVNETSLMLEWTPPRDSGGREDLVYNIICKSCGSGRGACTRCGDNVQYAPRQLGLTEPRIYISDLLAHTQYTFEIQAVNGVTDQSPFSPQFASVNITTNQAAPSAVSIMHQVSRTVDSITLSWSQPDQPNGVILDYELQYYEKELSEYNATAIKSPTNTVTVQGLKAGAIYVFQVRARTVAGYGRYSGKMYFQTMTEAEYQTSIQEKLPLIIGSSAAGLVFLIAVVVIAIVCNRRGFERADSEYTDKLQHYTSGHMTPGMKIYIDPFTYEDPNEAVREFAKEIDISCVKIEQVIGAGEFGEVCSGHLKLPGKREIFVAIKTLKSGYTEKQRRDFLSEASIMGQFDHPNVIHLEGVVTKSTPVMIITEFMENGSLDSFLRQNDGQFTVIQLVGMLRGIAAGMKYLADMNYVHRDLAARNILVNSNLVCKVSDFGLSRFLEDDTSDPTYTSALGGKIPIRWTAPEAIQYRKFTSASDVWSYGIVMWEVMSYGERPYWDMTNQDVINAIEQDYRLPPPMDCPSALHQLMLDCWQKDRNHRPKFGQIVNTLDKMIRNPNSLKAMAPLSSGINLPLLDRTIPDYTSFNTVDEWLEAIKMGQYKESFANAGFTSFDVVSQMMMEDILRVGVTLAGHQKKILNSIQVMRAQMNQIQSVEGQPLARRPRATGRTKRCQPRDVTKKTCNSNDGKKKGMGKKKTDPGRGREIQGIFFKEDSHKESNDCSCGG

[4] = target: T3, TSSK1(h) (Homo sapiens, UniProt Q9BXA7)
T3 sequence (Q9BXA7 1-367): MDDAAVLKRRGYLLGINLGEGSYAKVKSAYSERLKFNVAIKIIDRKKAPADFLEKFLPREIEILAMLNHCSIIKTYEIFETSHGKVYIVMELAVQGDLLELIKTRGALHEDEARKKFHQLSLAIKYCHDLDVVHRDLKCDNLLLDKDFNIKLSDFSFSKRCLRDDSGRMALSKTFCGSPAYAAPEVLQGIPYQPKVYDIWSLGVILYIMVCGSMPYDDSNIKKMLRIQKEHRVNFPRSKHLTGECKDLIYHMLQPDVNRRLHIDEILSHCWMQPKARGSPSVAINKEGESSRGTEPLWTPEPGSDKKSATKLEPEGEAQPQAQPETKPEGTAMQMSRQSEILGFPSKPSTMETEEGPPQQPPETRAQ

[5] = target: Pyk2(h) (Homo sapiens, UniProt Q14289)
Chain of Pyk2(h) (Q14289 whole entry): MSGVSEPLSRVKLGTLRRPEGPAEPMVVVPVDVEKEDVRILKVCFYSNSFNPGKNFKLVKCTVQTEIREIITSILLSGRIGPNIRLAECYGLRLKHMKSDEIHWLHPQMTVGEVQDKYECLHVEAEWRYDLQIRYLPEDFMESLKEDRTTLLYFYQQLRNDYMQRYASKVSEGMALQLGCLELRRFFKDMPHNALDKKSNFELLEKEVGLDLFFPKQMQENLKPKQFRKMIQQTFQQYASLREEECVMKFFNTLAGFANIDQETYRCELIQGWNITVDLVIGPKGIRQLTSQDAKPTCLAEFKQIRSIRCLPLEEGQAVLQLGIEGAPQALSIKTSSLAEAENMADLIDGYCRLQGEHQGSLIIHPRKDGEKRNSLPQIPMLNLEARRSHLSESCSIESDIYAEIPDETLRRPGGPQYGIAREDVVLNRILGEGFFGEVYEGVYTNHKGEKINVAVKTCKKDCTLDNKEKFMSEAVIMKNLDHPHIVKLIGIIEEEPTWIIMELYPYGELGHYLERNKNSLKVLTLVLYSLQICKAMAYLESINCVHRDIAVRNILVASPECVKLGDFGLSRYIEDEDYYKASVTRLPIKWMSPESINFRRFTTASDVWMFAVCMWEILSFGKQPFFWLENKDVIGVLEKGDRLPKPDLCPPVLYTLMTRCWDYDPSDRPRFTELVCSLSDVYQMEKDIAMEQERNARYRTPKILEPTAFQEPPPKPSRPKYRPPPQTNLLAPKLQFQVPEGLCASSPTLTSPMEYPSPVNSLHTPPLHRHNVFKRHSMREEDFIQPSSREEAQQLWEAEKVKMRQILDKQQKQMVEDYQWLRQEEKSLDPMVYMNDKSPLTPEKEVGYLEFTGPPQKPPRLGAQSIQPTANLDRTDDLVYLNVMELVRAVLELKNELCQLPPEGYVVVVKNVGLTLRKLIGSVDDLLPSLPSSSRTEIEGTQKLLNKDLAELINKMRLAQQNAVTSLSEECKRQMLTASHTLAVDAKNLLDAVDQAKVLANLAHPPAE

[6] = target: FGFR3(h) (Homo sapiens, UniProt P22607)
Chain of FGFR3(h) (P22607 23-806): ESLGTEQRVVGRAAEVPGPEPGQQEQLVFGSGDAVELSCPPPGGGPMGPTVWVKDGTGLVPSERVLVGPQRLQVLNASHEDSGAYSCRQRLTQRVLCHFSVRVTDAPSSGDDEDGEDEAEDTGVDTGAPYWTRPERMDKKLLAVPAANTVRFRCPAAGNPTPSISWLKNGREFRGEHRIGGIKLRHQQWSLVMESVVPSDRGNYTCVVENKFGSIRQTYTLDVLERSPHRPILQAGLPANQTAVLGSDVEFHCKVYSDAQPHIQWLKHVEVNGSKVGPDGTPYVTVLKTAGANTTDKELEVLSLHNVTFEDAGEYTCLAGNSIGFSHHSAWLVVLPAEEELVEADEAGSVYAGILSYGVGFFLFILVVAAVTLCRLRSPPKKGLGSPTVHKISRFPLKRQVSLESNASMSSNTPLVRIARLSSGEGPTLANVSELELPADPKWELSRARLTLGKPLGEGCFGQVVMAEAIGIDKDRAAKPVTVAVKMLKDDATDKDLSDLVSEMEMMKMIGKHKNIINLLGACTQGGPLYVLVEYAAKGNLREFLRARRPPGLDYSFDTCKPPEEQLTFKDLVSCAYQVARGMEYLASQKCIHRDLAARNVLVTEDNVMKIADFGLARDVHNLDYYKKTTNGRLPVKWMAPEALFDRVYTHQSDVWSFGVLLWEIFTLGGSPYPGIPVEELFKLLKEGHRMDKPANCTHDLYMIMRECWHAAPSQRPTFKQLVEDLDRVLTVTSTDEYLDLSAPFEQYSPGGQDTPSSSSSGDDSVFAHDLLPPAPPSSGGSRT

Chain of CaMKI(h) (Q14012 whole entry): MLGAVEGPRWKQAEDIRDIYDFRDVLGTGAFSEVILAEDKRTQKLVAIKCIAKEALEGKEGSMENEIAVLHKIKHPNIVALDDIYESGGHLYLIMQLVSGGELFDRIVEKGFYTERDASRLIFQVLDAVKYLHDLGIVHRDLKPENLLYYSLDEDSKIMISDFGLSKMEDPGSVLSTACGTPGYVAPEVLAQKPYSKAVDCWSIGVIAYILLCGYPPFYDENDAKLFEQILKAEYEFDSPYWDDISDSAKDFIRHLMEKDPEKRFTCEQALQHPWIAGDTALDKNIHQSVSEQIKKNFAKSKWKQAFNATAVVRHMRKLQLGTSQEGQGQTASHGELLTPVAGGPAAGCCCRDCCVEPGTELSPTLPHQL

Sequence	% activity [1] [%]	% activity [2] [%]	% activity [3] [%]	% activity [4] [%]	% activity [5] [%]	% activity [6] [%]
FAKLAARLYRKALARQLGVAA [MMI-0300]	1	73	18	79	47	
KAFAKLAARLYRKALARQLGVAA [MMI-0400]	0	61	22	79	34	0
YARAAARQARAKALNRQLGVA [MMI-0200]	21		128	98	127	208
HRRIKAWLKKIKALARQLGVAA [MMI-0500]	−1	40	70	46	46	10

Source: patent US20190134153A1, “IMMUNOMODULATORY EFFECT OF INHALED KINASE INHIBITOR PEPTIDES IN LUNG” (MOERAE MATRIX, INC., priority 2017, published 2019)
